T1: recombinant human 5T4 protein (human, UniProt Q13641 32-355)
T1 construct: The ELISA protein was bought (Sino biologics and Biorbyt); also called recombinant 5T4 protein; trophoblast glycoprotein (TPBG)
T1 sequence: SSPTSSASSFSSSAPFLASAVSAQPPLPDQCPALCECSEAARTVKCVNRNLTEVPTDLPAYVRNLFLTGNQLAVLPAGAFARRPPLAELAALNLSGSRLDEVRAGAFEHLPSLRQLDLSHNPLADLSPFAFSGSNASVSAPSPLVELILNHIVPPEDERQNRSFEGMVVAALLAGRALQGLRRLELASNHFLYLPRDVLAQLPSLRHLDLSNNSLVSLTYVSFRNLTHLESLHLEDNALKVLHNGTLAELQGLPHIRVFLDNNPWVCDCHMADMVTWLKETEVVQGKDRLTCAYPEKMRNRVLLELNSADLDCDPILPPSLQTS

T2: FcγRIIa (UniProt P12318 34-218, limits assumed)
T2 construct: also called Fc gamma receptor IIa
T2 sequence (looked up): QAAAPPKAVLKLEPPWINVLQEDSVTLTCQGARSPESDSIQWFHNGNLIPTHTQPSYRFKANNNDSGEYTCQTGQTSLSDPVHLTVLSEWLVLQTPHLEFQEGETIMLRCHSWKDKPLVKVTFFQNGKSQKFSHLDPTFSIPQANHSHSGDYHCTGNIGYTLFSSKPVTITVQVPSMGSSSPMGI

T3: FcγRIIb (UniProt P31994 43-217, limits assumed)
T3 construct: also called Fc gamma receptor IIb
T3 sequence (looked up): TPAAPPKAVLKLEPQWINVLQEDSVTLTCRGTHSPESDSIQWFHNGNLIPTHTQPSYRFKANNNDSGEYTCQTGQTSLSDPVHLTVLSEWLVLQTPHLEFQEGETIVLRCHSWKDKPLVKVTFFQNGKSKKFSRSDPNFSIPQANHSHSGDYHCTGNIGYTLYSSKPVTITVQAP

T4: FcγRIIa (Homo sapiens, UniProt P12318)
T4 construct: purchased Sino Biological
T4 sequence (P12318 34-317): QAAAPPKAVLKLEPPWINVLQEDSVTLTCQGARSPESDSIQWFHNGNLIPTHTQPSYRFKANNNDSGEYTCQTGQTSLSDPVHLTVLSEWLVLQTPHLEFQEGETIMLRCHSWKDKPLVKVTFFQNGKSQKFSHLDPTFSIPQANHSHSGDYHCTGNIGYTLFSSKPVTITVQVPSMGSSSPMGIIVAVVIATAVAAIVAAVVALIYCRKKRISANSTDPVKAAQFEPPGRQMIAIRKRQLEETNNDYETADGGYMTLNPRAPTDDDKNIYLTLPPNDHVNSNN

T5: FcγRIIb (Homo sapiens, UniProt P31994)
T5 construct: purchased Sino Biological
T5 sequence (P31994 43-310): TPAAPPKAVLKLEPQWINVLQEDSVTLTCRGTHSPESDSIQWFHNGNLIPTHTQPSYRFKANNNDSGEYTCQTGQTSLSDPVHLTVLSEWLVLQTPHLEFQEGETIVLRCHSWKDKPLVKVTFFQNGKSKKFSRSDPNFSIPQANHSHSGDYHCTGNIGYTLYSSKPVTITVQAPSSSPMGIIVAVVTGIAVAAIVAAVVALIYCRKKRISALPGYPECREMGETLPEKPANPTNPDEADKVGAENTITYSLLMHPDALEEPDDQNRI

B1: Bs3-HL-FCA biparatopic anti-5T4 antibody (Bs3 with the scFv in the VH-VL orientation and the L234F, S239C and N434A mutations) (bispecific antibody, human IgG1, kappa)
heavy: QVQLVQSGAEVKKPGASVKVSCKASGYSFTDYYMHWVRQAPGQGLEWMGRVSPNNGATNTNQKFKDRVTMTRDTSISTAYMELRSLRSEDTAVYYCARSTMITSYYFDYWGQGTLVTVSSASTKGPSVFPLAPSSKSTSGGTAALGCLVKDYFPEPVTVSWNSGALTSGVHTFPAVLQSSGLYSLSSVVTVPSSSLGTQTYICNVNHKPSNTKVDKRVEPKSCDKTHTCPPCPAPEFLGGPCVFLFPPKPKDTLMISRTPEVTCVVVDVSHEDPEVKFNWYVDGVEVHNAKTKPREEQYNSTYRVVSVLTVLHQDWLNGKEYKCKVSNKALPAPIEKTISKAKGQPREPQVYTLPPSREEMTKNQVSLTCLVKGFYPSDIAVEWESNGQPENNYKTTPPVLDSDGSFFLYSKLTVDKSRWQQGNVFSCSVMHEALHAHYTQKSLSLSPGKGGGGSGGGGSGGGGSEVQLLESGGGLVQPGGSLRLSCAASGFDFSRYWMTWVRQAPGKCLEWVSEINPDSRTINYTPSLKDRFTISRDNAKNTLYLQMNSLRAEDTAVYYCARPDHDYNPYYFNYWGQGTTVTVSSGGGGSGGGGSGGGGSGGGGSDIVLTQSPASLAVSLGQRATISCRPSQSVSTSSNSYIHWYQQKPGQPPKLLIKYASNLESGVPARFSGSGSGTDFTLTISPVEAEDTATYYCQQSWEIPLTFGCGTKLEIK
light: DIVMTQSPSFLSVSVGDRVTITCKASQSVSTDVAWYQQKPGQAPKLLIYFASDRYTGVPDRFSGSGSGTDFTFTISSLQAEDVAVYYCQQDYSSPPTFGGGTKLEIKRTVAAPSVFIFPPSDEQLKSGTASVVCLLNNFYPREAKVQWKVDNALQSGNSQESVTEQDSKDSTYSLSSTLTLSKADYEKHKVYACEVTHQGLSSPVTKSFNRGEC
notes: also called 5T4-Bs3- FCA; BsAb with the FCA mutations
B2: Parental Ab1 without Fc mutations: parental anti-5T4 Antibody (Ab1) without Fc mutations, used as a positive control for FcR binding (antibody, V domains shown)
VH: QVQLVQSGAEVKKPGASVKVSCKASGYSFTDYYMHWVRQAPGQGLEWMGRVSPNNGATNTNQKFKDRVTMTRDTSISTAYMELRSLRSEDTAVYYCARSTMITSYYFDYWGQGTLVTVSS
VL: DIVMTQSPSFLSVSVGDRVTITCKASQSVSTDVAWYQQKPGQAPKLLIYFASDRYTGVPDRFSGSGSGTDFTFTISSLQAEDVAVYYCQQDYSSPPTFGGGTKLEIK

Experiments:
FcγRIIIa (158V) [1] = biological target: T6, FcγRIIIa (158V) (UniProt P08637 17-208); experiment: SPR (Biacore 8K), antibody captured on Protein A chip, Fc receptor as analyte
T6 construct: 158 is usually counted on the mature protein (176 on the precursor); also called Fc gamma receptor IIIa
T6 sequence (P08637 17-208 F176V): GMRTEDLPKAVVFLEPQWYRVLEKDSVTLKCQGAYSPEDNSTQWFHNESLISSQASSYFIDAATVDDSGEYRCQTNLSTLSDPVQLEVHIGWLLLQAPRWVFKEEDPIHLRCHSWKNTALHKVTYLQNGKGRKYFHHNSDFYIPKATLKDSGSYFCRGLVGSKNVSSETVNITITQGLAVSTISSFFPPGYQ
Description: (§1) A total of 5 Fc receptors, including FcγRI (Abcam), FcγRIIa, FcγRIIb, FcγRIIIa (158V), and FcγRIIIb (Sino Biological), were analyzed. […] SPR kinetic experiments were performed on Biacore 8K systems (GE Healthcare) with HBS-EP+ as running buffer. […] Capture level for each ligand was maintained between 50-100RU. […] After each binding cycle, the sensor chip was regenerated with glycine solution, pH 1.5. The resulting sensorgrams were fitted with a one-to-one binding model to extract kinetic constants using Biacore 8K Evaluation Software.

FcγRIIIb [2] = biological target: T7, FcγRIIIb (UniProt O75015 17-200, limits assumed); experiment: as above
T7 construct: also called Fc gamma receptor IIIb
T7 sequence (O75015 17-200 limits assumed): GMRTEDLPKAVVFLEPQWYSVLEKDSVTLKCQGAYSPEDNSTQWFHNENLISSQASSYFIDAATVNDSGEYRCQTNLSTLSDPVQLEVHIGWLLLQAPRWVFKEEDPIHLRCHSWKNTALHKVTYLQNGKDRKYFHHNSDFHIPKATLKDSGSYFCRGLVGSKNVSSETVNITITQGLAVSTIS
Description: as §1

[3] = biological target: T1, recombinant human 5T4 protein; experiment: SPR (Biacore 8K), antibody captured on Protein A chip, 5T4 as analyte 0.625-10 nM, 1:1 model
Description: The binding affinity of anti-5T4 bispecific antibody-drug conjugate monospecific and bispecific antibodies to 5T4 was measured by Biacore kinetic experiments using a Protein A sensor chip on Biacore 8K (Cytiva) with HBS-EP+ as running buffer. […] After each binding cycle, the sensor chip was regenerated with glycine solution, pH 1.5. Signals from reference surface and an ensemble of buffer blank injections were subtracted from binding signals to correct for nonspecific binding and injection artifacts. The corrected experimental signals were globally fitted to a 1:1 binding model to extract kinetic constants, including association rate constant (ka), dissociation rate constant (kd), and equilibrium dissociation constant (KD), using the Biacore 8K Evaluation Software.

FcγRI (Abcam) = biological target: T8, FcγRI (Abcam) (UniProt P12314 16-288, limits assumed); experiment: SPR (Biacore 8K), antibody captured on Protein A chip, Fc receptor as analyte, 1:1 model
T8 construct: also called Fc gamma receptor I
T8 sequence (P12314 16-288 limits assumed): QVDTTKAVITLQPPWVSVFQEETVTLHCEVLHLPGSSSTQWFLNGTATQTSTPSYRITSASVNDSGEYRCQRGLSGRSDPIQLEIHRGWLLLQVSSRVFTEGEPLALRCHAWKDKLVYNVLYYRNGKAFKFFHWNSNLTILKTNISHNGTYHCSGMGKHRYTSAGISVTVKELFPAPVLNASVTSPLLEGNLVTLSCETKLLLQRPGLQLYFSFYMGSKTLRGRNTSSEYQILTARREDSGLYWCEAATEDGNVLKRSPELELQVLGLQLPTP
Description: as §1

FcγRIIa [4] = biological target: T2, FcγRIIa; experiment: as above
Description: as §1

FcγRIIb [5] = biological target: T3, FcγRIIb; experiment: as above
Description: as §1

FcγRIIIb [6] = biological target: T9, FcγRIIIb (Homo sapiens, UniProt O75015); experiment: FcγR binding activity, Biacore SPR; conditions: antibody captured on protein A chip, receptor 0.41 nM to 100 nM
T9 construct: purchased Sino Biological
T9 sequence (O75015 17-200): as the sequence (O75015 17-200 limits assumed) above
Description: (§2) Site mutations (L234F and S239C) in the Fc region of anti-5T4 bispecific antibody-drug conjugates were designed to mitigate potential side effects which could be caused by the antibody effector function. To confirm the mutations had the intended effect of reducing Fc receptor binding activities, the affinities between an anti-5T4 bispecific antibody with Fc mutations and an array of Fc receptors were evaluated by Biacore assay. A total of 5 Fc receptors, including FcγRI (Abcam), FcγRIIa, FcγRIIb, FcγRIIIa (158V), and FcγRIIIb (Sino Biological), were analyzed. One parental anti-5T4 Antibody (Ab1) without Fc mutations, was used as a positive control for FcR binding. SPR kinetic experiments were performed on Biacore 8K systems (GE Healthcare) with HBS-EP+ as running buffer. Antibodies were captured in the active flow cell of a protein A sensor chip (Cytiva). Capture level for each ligand was maintained between 50-100RU. For kinetic analysis, each receptor was serially diluted to 6 different concentrations, ranging from 0.41 nM to 100 nM, and the serial dilutions were injected sequentially over both reference and active flow cells in each single channel. After each binding cycle, the sensor chip was regenerated with glycine solution, pH 1.5. The resulting sensorgrams were fitted with a one-to-one binding model to extract kinetic constants using Biacore 8K Evaluation Software.
(§3) Site mutations (L234F, S239C and N434A) in the Fc region of the Bs3-HL biparatopic antibody are designed to mitigate potential side effects caused by the antibody effector function.

FcγRIIa [7] = biological target: T4, FcγRIIa; experiment: FcγR binding activity, Biacore SPR; conditions: antibody captured on protein A chip, receptor 0.41 nM to 100 nM
Description: as §2, §3

FcγRIIb [8] = biological target: T5, FcγRIIb; experiment: FcγR binding activity, Biacore SPR; conditions: antibody captured on protein A chip, receptor 0.41 nM to 100 nM
Description: as §2, §3

FcγRI = biological target: T10, FcγRI (Homo sapiens, UniProt P12314); experiment: FcγR binding activity, Biacore SPR; conditions: antibody captured on protein A chip, receptor 0.41 nM to 100 nM
T10 construct: purchased Abcam
T10 sequence (P12314 16-374): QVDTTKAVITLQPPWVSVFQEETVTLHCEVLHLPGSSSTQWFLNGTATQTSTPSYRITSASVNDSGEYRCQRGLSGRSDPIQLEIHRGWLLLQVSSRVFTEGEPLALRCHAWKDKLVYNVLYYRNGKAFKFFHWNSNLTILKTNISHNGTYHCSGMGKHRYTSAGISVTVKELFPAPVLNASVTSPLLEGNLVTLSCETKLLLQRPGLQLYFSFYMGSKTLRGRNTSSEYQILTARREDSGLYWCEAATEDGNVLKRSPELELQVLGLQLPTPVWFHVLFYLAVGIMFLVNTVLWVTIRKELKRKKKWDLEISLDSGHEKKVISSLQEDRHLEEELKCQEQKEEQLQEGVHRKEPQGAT
Description: (§4) A total of 5 Fc receptors, including FcγRI (Abcam), FcγRIIa, FcγRIIb, FcγRIIIa (158V), and FcγRIIIb (Sino Biological), were analyzed. One parental anti-5T4 Antibody (Ab1) without Fc mutations, was used as a positive control for FcR binding. SPR kinetic experiments were performed on Biacore 8K systems (GE Healthcare) with HBS-EP+ as running buffer. […] Capture level for each ligand was maintained between 50-100RU. […] After each binding cycle, the sensor chip was regenerated with glycine solution, pH 1.5. The resulting sensorgrams were fitted with a one-to-one binding model to extract kinetic constants using Biacore 8K Evaluation Software.

FcγRIIIa (158V) [9] = biological target: T11, FcγRIIIa (158V) (Homo sapiens, UniProt P08637, F176V); experiment: FcγR binding activity, Biacore SPR; conditions: antibody captured on protein A chip, receptor 0.41 nM to 100 nM
T11 construct: purchased Sino Biological
T11 sequence (P08637 17-208 F176V limits assumed): as the sequence (P08637 17-208 F176V) above
Description: as §4

Molecule	binding result (FcγRIIIa (158V) [1])	binding result (FcγRIIIb [2])	Kd [3] [µM]	Kd (FcγRI (Abcam)) [µM]	Kd (FcγRIIa [4]) [µM]	Kd (FcγRIIb [5]) [µM]	KD for binding to FcγRIIIb (FcγRIIIb [6])	Kd (FcγRIIa [7]) [µM]	Kd (FcγRIIb [8]) [µM]	Kd (FcγRI) [µM]	Kd (FcγRIIIa (158V) [9]) [µM]
B1	no binding (tested: receptor 0.41 nM to 100 nM)	no binding (tested: receptor 0.41 nM to 100 nM)	0.000775	0.0396	0.0915	0.116	–	–	–	–	–
B2	–	–	–	–	–	–	No binding	0.0986	0.111	0.00373	0.0505

From patent US20260124314A1, “ANTl-5T4 ANTIGEN BINDING DOMAINS, ANTIBODY-DRUG CONJUGATES AND METHODS OF USE THEREOF” (Salubris Biotherapeutics, Inc., priority 2023, published 2026)
